Measurements: the nanobody polyreactivity screen of Harvey et al. (2022)

Assay: yeast display, Sf9 membrane polyspecificity reagent, FACS + sequencing; frameworks hold sequencing errors
Method in brief: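 Nanobodies from a synthetic yeast display library (Saccharomyces cerevisiae BJ5465), induced 36–48 hours with galactose, were stained 1 hour at 4 °C with 10% biotinylated, detergent-solubilized Sf9 membrane reagent, enriched on streptavidin microbeads, then FACS-sorted. Anti-HA (expression) and streptavidin (reagent binding) fluorescence set low and high (top ~1%) gates. Polyreactivity labels come from the gate of origin. Genes were colony-PCR amplified, MiSeq 2 × 250 sequenced and filtered by CDR length.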

Sequence | polyreactivity (PSR sort gate)
QVQLVESGGGLVQAGGSLRLSCAASGFIFGWYAMGWYRQAPGKERELVAAINWSGTSTYYADSVKGRFTISRDNAKNTVYLQMNILKPEDTAVYYCAAYFQNLPTTGYDYWGQGTQVTVSS | low polyreactivity
QVQLVESGGGLVQAGGSLRLSCAASGFIFGWYTMGWYRQAPGKERELVASISRSGGSTYYAESVKARFTISRDNEKNSVYLQMNSQKPEDNPVYYCAKRSLVDAHGYWGQGTQVTVSS | high polyreactivity
QVQLVESGGGLVQAGGSLRLSCAASGFIFGYNAMGWYRQAPGKERELVAAMDWSGTSTYYADSVKGRFTISRDNAKNTVYLQMNSLKPEDTAVYYCAKVSRRGIVGYWGQGTQVTVSS | high polyreactivity
QVQLVESGGGLVQAGGSLRLSCAASGFIFGYYAMAWYRQAPGKERELVAAITSGTGTNYADSVKGRFTISRDNAKNTVYLQMNSLKPEDTAVYYCAAYYTWLSEFGYWGQGTQVTVSS | low polyreactivity
QVQLVESGGGLVQAGGSLRLSCAASGFIFGYYAMGGYRQAPGKERELVATIRQTGGSTRYADSVKGRFTISRDNAKNTVYLQMNSLIPEDTAVYYCAAYKWPSWRTWPYDSWGQGPQVTVSS | high polyreactivity
QVQLVESGGGLVQAGGSLRLSCAASGFIFGYYAMGWYRQAPAKERELVAAINWSGGSTYYADSVKGRFTISRDNAKNTVYLQMNSLKPEDTAVYYCAARYPYRRGGQDSYYYWGQGTQVTVSS | high polyreactivity
QVQLVESGGGLVQAGGSLRLSCAASGFIFGYYAMGWYRQAPGKERELVAAINGSGGSTYYADSVKGRFTISRDNAKNTVYLQMNSLKPEDTAVYYCNADVVPQYYSWGQGTQVTVSS | low polyreactivity
QVQLVESGGGLVQAGGSLRLSCAASGFIFGYYAMGWYRQAPGKERELVAAISKSGTDTYYADSVKGRFTISRDNAKNTVYLQMNSLKPEDTAVYYCNALLRGYSYGYDYWGQGTQVTVSS | high polyreactivity
QVQLVESGGGLVQAGGSLRLSCAASGFIFGYYAMGWYRQAPGKERELVAAITSGTGTNYADSVKGRFTISRDNAKNTVYLQMNSLKPEDTAVYYCAAYYTWLSEFGYWGQGTQVTVSS | low polyreactivity
QVQLVESGGGLVQAGGSLRLSCAASGFIFGYYAMGWYRQAPGKERELVAAITSGTSTNYADSVKGRFTISRDNAKYTVYLQMNSLKPDDTAVYYCAADRWRRRFYYWGQGTQVTVSS | high polyreactivity
QVQLVESGGGLVQAGGSLRLSCAASGFIFHGYALGWYRQAPGKERELVAAITRRGGRTDYADSVKGRFTISRDNAKNTVYLQMNSLKPEDTAVYYCAKRYTATEWHGERDYWGQGTQVTVSS | high polyreactivity
QVQLVESGGGLVQAGGSLRLSCAASGFIFHPNTMGWYRPAPGKERELVAGISYSGGITYTDSVKGRFTISRDNAKNTVYLQMNSLQPEDTAVYYFNARTKVAYYRHYYWGQGTQVTVSS | low polyreactivity
QVQLVESGGGLVQAGGSLRLSCAASGFIFHRNAMGWYRQAPGKERELVAAITRSSTSTYYADSVKGRFTISRDNAKNTVYLQMNSLKPEDTAVYYCNARYPSADDWGQGTQVTVSS | high polyreactivity
QVQLVESGGGLVQAGGSLRLSCAASGFIFHRYAMGWYRQAPGKERELVATITASGGSTYYADSVKGRFTISRDNAKNTVYLQMNSLKPEDTAVYYCAAGSFSRGRRTRQYNFDYWGQGTQVTVSS | high polyreactivity
QVQLVESGGGLVQAGGSLRLSCAASGFIFIKYAMGWYRQAPGKERELLAASSFRGGRTYYADSVKGRFTISRDNAKNTVYLQMNSLNPEETAVYYCAAETRDYSEGYYWGQGTQVTVSS | high polyreactivity
QVQLVESGGGLVQAGGSLRLSCAASGFIFIQNDMGWYRQAPGKEREFVASISKDGGRTYYADSVKGRFTISRDNAKNTVYLQMNSLKPEDTAVYYCNTYPRGNWGNFVEQDYDYWGQGTQVTVSS | low polyreactivity

Sequence | polyreactivity (PSR sort gate)
QVQLVESGGGLVQAGGSLRLSCAASGFIFISNAMGWSRQAPGKERELVARISDTDRTHYADSVKGRFTISRDNAKNTVYLQMNSLKPEDTAVYYCAAYDYNAIEYGYWGQGSQVTVSS | low polyreactivity
QVQLVESGGGLVQAGGSLRLSCAASGFIFIYYAMGWYRQAPGKERELVAGITSGGSTNYADSVKGRFTISRDNAKNTVYLQMNSLKPEDTAVYYCAAGSSARWYPRYNYWGQGTQVTVSS | high polyreactivity
QVQLVESGGGLVQAGGSLRLSCAASGFIFKFYAMGWYRQAHGKERELVAAISKSGGRTYYADSVKGRFTISRDNAKNTVYLQMNSLKPEDTAVYYCNAPSVGAAFDYWGQGTQVTVSS | high polyreactivity
QVQLVESGGGLVQAGGSLRLSCAASGFIFKKYVMGWYRQAPGKERELVAGSSRSGGSTYYADSVKGRFTISRDNAKNTVYVQMNSLKPEDTAVYYCAAYIYQSPTRGGGYWGQGTQVSVSS | high polyreactivity
QVQLVESGGGLVQAGGSLRLSCAASGFIFKPYAMGWYRQAPGKERELVAAITVNGGTTYYADSVKGRFTISRDNAKNTVYLQMNSLKPEDTAVYYCNRGRPGGPSWYHYDYWGQGTQGTVSS | high polyreactivity
QVQLVESGGGLVQAGGSLRLSCAASGFIFKRYAMGWYRQAPGKERELVAAITSSGGRTYYADSVKGRFTISRDNAKNTVYLQMISLKPEDTAVYYCAKGWSTYYTKMNYWGQGTQVTVSS | low polyreactivity
QVQLVESGGGLVQAGGSLRLSCAASGFIFKSYAMGWYRQAPGKERELVAAITRGDNTNYADSVKGRFTISRDNAKNTFYLQMNSLKPEDTAVYYCAADRYTVRMDYWGQGTQVTVSS | high polyreactivity
QVQLVESGGGLVQAGGSLRLSCAASGFIFKTYAMGWYRQAPGKERELVAAITGTGTSTYYADSVKGRFTISRDNAKNTVYLQMNSLKTEDTAVYYCAAEFGGRSYYPRHEYWGQGTQVTVSS | low polyreactivity
QVQLVESGGGLVQAGGSLRLSCAASGFIFKYNAMGWYRQAPGKERELVAAITSSGGSTYYADSVKGRFTISRDNAKNTVYLQMNSLKPEDTAVYYCNRVRDPSYDYWGQGTQVTVSS | high polyreactivity
QVQLVESGGGLVQAGGSLRLSCAASGFIFKYYAMGWYRQAPGKERELVAAISRSGGSTYYADSVKGRFTISRDNAKNTVYLLMNSLKPEDTAVYYCAADSSWVHEYYYWGQGTQVTVSS | high polyreactivity
QVQLVESGGGLVQAGGSLRLSCAASGFIFKYYAMGWYRQAPGKERELVATITRRGGSTYYADSVKGRFTISRDNAKNTVYLQMNSLKPEDTAVYYCNVTPDWNARRPFDYWGQGTKVTVSS | high polyreactivity
QVQLVESGGGLVQAGGSLRLSCAASGFIFLIYAMGWYRQAPGKERELVATIRYSGGRTYYADSVKGRFTISRDNAKNTVYLQMNSLKPEDTAVYYCAARSVWFSGQGRMNYWGQGTQVTVSS | high polyreactivity
QVQLVESGGGLVQAGGSLRLSCAASGFIFLRYAMGWYRQAPGKERELVAAISSSGGRTTYADSVKGRFTISRDNAKNTLYLQMNSLKPEDTAVYYCNADLWPGNHDGYWGQGTQVTVSS | low polyreactivity
QVQLVESGGGLVQAGGSLRLSCAASGFIFLRYGMGWYRPAPGKERELVASIDSTGGSTYADSVKGRFTISRDNAKNTVYLQMNSLKPEDTAVDYCAAAYYIVSERDYWGQGTQVTVSS | low polyreactivity
QVQLVESGGGLVQAGGSLRLSCAASGFIFLSYAKGWYRQAPGKERELVATITWSGGRTYYADSVKGRFTISRDNAKNTVYLQMNSLKPEDTAVYYCAKVNTYYNIYVTFDYWGQGTQVTVSS | low polyreactivity
QVQLVESGGGLVQAGGSLRLSCAASGFIFLYYAMGWYRQAPGKERELVAVITRGGRTYYADSVKGRFTISRDNAKNTVYLQMNSLKPEDTAVYYCAAKAYSYFARIGFDYWGQGTQVTVSS | high polyreactivity
